Source: patent US20220177587A1, “METHODS AND USES OF VARIANT CD80 FUSION PROTEINS AND RELATED CONSTRUCTS” (Alpine Immune Sciences, Inc., priority 2018, published 2022)

Columns and labels:
huPD-L1/MC38 cells = test: huPD-L1 MC38 tumor model, combination with oxaliplatin; format: in vivo, mouse; details: monotherapy
Experimental: To test the anti-tumor activity of the exemplary variant, it was evaluated alone or in combination with the platinum-based chemotherapeutic agent, oxaliplatin, in mice bearing human PD-L1-expressing MC38 tumors, which is a syngeneic mouse colon carcinoma solid tumor model.
The huPD-L1 MC38 cell line was generated by transducing parental MC38 cells with huPD-L1 using viral transduction. Eight-week old female C57/BL6NJ mice (The Jackson Laboratories, Sacramento, Calif.) were implanted subcutaneously with 0.5×10^6 huPD-L1/MC38 cells. For injections, 0.1 mL of cells (0.5×10^6 cells) were injected subcutaneously (SC) in the right mid-flank region.
On day 1, mice were randomized into four groups of 10 mice each, with all mice in each group having about equal mean tumor volumes (˜108 mm^3). Tumors were measured with electronic calipers two-dimensionally twice weekly, beginning on day 7 post-tumor cell implant (referred to as “day 1”). Tumor volume was calculated as length×(width×2)×0.5, with the length being the longer of the two measurements.
As shown, 30% of the mice in the monotherapy group were tumor free by the end of the study.

huPD-L1 = huPD-L1 (Homo sapiens, UniProt Q9NZQ7); test: Flow binding to CHO cells stably expressing PD-L1; set-up: huCTLA4 and huPD-L1, full-length mammalian surface expression constructs were generated; expressed in transfected cells; host or cells: CHO cells, lentiviral transduction, sorted to >98% purity; details: 66.7 nM
huPD-L1, sequence (Q9NZQ7 19-290): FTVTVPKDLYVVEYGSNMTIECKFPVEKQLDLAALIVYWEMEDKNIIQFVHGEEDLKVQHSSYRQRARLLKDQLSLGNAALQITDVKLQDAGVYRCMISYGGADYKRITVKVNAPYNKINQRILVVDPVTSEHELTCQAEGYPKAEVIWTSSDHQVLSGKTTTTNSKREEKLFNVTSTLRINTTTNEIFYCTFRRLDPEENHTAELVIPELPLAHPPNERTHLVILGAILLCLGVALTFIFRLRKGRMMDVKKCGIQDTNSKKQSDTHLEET
Experimental: (§1) Binding of selected immunomodulatory fusion proteins to cognate binding partners was assessed. […] Cells were sorted in a Bio-Rad S3 Cell Sorter (Bio-Rad Corp., USA) to >98% purity. Jurkat/IL2 reporter cells, which endogenously express CD28, were used to detect binding to CD28.
(§2) For staining and analysis by flow cytometry, 100,000 cells of appropriate transfected cells were plated in 96-well round bottom plates. Cells were spun down and resuspended in staining buffer (phosphate buffered saline (PBS), 1% bovine serum albumin (BSA), and 0.1% sodium azide) for 20 minutes to block non-specific binding. […] Primary staining was performed on ice for 45 minutes, before washing cells in staining buffer twice. Phycoerythrin (PE)-conjugated anti-human Fc (Jackson ImmunoResearch, USA) was diluted 1:150, added to cells and incubated another 30 minutes on ice. Cells were then washed twice with 150 μL/well stain buffer, fixed in 2% formaldehyde/PBS, and analyzed on Intellicyt flow cytometer (Intellicyt Corp., USA). PE Mean Fluorescence Intensity (MFI) was calculated for each cell type with FlowJo Version 10 software (FlowJo LLC, USA).
(§3) Binding assays were carried out to assess the specificity and affinity of multivalent proteins to cell-expressed CTLA-4, CD28, and PD-L1 counter structures.
(§4) The EC50 for binding also was determined.

huCTLA4 = huCTLA4 (Homo sapiens, UniProt P16410); test: Flow binding to CHO cells stably expressing CTLA4; set-up: huCTLA4 and huPD-L1, full-length mammalian surface expression constructs were generated; expressed in transfected cells; host or cells: CHO cells, lentiviral transduction, sorted to >98% purity
huCTLA4, sequence (P16410 36-223): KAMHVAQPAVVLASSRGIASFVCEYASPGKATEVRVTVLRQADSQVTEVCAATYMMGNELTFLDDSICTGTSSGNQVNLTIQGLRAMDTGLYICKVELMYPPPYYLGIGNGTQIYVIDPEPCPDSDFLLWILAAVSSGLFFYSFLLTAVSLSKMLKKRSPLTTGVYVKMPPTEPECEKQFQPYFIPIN
Experimental: as §1, §2, §3, §4

CD28 [1] = molecular target: T1, CD28 (Homo sapiens, UniProt P10747); test: Jurkat/IL2 + K562/OKT3 (no PD-L1) reporter assay of CD80 ECD-Fc (effector); format: cell-based; set-up: host or cells: Jurkat cells expressing an IL-2-luciferase reporter; details: aAPC without PD-L1
Experimental: The bioactivity of the generated molecules also was assessed using a Jurkat report assay as described in Examples 9 to assess CD28 costimulation of the molecules.

CD28 [2] = molecular target: T1, CD28; test: Flow binding to Jurkat/IL2 reporter cells (CD28); set-up: host or cells: Jurkat cells expressing an IL-2-luciferase reporter
Experimental: as §1, §2, §3, §4

Pan T cells = test: Primary T cell stimulation assay with K562/OKT3 +/- PD-L1 (IL-2, IFN-gamma, proliferation); format: cell-based, human; set-up: IL-2 release, K562/OKT3 (No PD-L1), CD80-IgV Fc (effector), 1 nM / IL-2 release, K562/OKT3 (No PD-L1), CD80-IgV Fc (effector), 10 nM / IL-2 release, K562/OKT3 (No PD-L1), CD80-IgV Fc (effector), 100 nM / IL-2 release, K562/OKT3/PD-L1, CD80-IgV Fc (inert), 1 nM / IL-2 release, K562/OKT3/PD-L1, CD80-IgV Fc (inert), 10 nM / IL-2 release, K562/OKT3/PD-L1, CD80-IgV Fc (inert), 100 nM: unit not given here; details: 72 hr
Experimental: IFN-gamma, IL-2 and proliferation were determined after 72 hr. incubation.

CHO/PD-L1 MFI at 66.7 nM (huPD-L1)	Relative Luminescence at 98 pM (CD28 [1])	Relative Luminescence at 391 pM (CD28 [1])	Relative Luminescence at 1563 pM (CD28 [1])	Relative Luminescence at 6250 pM (CD28 [1])	Relative Luminescence at 25000 pM (CD28 [1])	Relative Luminescence at 100000 pM (CD28 [1])	Compound	other results
–	–	–	–	–	–	–	O=C1[O][Pt]2([NH][C@@H]3CCCC[C@H]3[NH]2)[O]C1=O [oxaliplatin, reference compound]	antitumor activity (huPD-L1/MC38 cells): only modestly effective as monotherapy; tumor free mice by the end of the study (huPD-L1/MC38 cells): no tumor-free mice
287	949 RLU	939 RLU	1022 RLU	1213 RLU	1558 RLU	2046 RLU	CD80 (E35D/D46E/M47V/V68M/D90G/K93E) ECD-Fc: variant full CD80 ECD fused to effector human IgG1 Fc (SEQ ID NO:1527)	CHO/CTLA4 MFI at 66.7 nM (huCTLA4; 66.7 nM): 24566; EC50 (huCTLA4; flow binding): 10.5 nM
103	1042 RLU	993 RLU	1049 RLU	1203 RLU	1730 RLU	2197 RLU	CD80 (S21P/L70Q/D90G/I118V/T120S/T130A) ECD-Fc: variant full CD80 ECD fused to effector human IgG1 Fc (SEQ ID NO:1527)	Jurkat/CD28 MFI at 66.7 nM (CD28 [2]; 66.7 nM): 282; EC50 (CD28 [2]; flow binding, read-out: Jurkat/CD28 EC50): > 200 nM
–	–	–	–	–	–	–	Inert Fc Control	IL-2 release, K562/OKT3 (No PD-L1), CD80-IgV Fc (effector), 1 nM (Pan T cells; Pan T cells + K562/OKT3 (no PD-L1), effector Fc format (controls as labelled), 1 nM): 7040; IL-2 release, K562/OKT3 (No PD-L1), CD80-IgV Fc (effector), 10 nM (Pan T cells; Pan T cells + K562/OKT3 (no PD-L1), effector Fc format (controls as labelled), 10 nM): 6335; IL-2 release, K562/OKT3 (No PD-L1), CD80-IgV Fc (effector), 100 nM (Pan T cells; Pan T cells + K562/OKT3 (no PD-L1), effector Fc format (controls as labelled), 100 nM): 5512; IL-2 release, K562/OKT3/PD-L1, CD80-IgV Fc (inert), 1 nM (Pan T cells; Pan T cells + K562/OKT3/PD-L1, inert Fc format (controls as labelled), 1 nM): <LOD; IL-2 release, K562/OKT3/PD-L1, CD80-IgV Fc (inert), 10 nM (Pan T cells; Pan T cells + K562/OKT3/PD-L1, inert Fc format (controls as labelled), 10 nM): 143; IL-2 release, K562/OKT3/PD-L1, CD80-IgV Fc (inert), 100 nM (Pan T cells; Pan T cells + K562/OKT3/PD-L1, inert Fc format (controls as labelled), 100 nM): <LOD
